Source: article PMC3466232, “FUS-NLS/Transportin 1 Complex Structure Provides Insights into the Nuclear Targeting Mechanism of FUS and the Implications in ALS” (PLoS ONE, 2012)
Numbering of substitutions follows the chain as printed. Numbers in names are those of the source.

T1: human transportin 1 (Trn1, residues 1-890) (human, UniProt Q92973-2 1-890)
T1 construct: transportin 1 (Trn1), human, full-length, residues 1-890; numbers count on: the 890-residue form; Cloned in pGEX-4T-3 with a TEV site; clone was a gift from Y. M. Chook; source: E. coli BL21 (DE3), purified (glutathione Sepharose, TEV cleavage, HiTrap Q FF, Superdex 200)
T1 sequence (looked up): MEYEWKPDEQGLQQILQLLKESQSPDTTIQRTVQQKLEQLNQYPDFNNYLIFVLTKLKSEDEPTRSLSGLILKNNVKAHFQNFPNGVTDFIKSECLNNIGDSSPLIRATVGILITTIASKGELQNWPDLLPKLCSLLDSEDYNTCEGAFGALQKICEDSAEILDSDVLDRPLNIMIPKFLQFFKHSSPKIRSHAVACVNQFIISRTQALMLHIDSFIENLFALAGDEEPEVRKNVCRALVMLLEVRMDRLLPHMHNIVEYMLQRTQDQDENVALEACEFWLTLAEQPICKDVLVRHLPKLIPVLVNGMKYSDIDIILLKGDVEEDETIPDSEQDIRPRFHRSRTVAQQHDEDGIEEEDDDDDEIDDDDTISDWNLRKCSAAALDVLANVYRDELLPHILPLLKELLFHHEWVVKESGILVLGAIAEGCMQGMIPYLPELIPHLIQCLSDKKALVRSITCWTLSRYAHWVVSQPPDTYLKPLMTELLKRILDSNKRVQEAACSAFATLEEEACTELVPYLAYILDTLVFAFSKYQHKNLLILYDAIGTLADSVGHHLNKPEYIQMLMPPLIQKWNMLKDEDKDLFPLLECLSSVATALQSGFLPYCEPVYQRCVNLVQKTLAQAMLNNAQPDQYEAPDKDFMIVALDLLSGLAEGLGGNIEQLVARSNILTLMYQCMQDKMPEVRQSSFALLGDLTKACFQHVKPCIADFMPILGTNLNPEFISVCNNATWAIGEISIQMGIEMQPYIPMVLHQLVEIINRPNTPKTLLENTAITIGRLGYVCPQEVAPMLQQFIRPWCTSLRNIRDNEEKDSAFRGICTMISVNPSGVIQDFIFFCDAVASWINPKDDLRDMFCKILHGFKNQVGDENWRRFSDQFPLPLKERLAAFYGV

B1: FUS-NLS(H517P) (domain or fragment, human, UniProt P35637 495-526, looked up)
chain: RGGRGGGDRGGFGPGKMDSRGEPRQDRRERPY
notes: ALS-associated mutation found in patients; made by site-directed mutagenesis; not shown: GST, N-terminal, cleaved
B2: FUS-NLS(K510E) (domain or fragment, human, UniProt P35637 495-526, looked up)
chain: B1 chain with K16E, P23H
notes: as for B1
B3: FUS-NLS(P525L) (domain or fragment, human, UniProt P35637 495-526, looked up)
chain: B1 chain with P23H, P31L
notes: as for B1
B4: FUS-NLS(R514G) (domain or fragment, human, UniProt P35637 495-526, looked up)
chain: B1 chain with R20G, P23H
notes: as for B1
B5: FUS-NLS(R518G) (domain or fragment, human, UniProt P35637 495-526, looked up)
chain: B1 chain with P23H, R24G
notes: as for B1
B6: FUS-NLS(R522G) (domain or fragment, human, UniProt P35637 495-526, looked up)
chain: B1 chain with P23H, R28G
notes: as for B1
B7: FUS-NLS(Y526A) (domain or fragment, human, UniProt P35637 495-526, looked up)
chain: B1 chain with P23H, Y32A
notes: Designed from the structure; not found in familial ALS patients; not shown: GST, N-terminal, cleaved
B8: FUS-NLS(E523Y) (domain or fragment, human, UniProt P35637 495-526, looked up)
chain: B1 chain with P23H, E29Y
notes: as for B7
B9: nuclear localization sequence of human FUS (FUS-NLS, residues 495-526), wild type (domain or fragment, UniProt P35637 495-526, looked up)
chain: B1 chain with P23H
notes: Cloned in pGEX-6P-2; also called FUS-NLS(WT); WT; not shown: GST, N-terminal, cleaved
B10: FUS-NLS(E523S) (domain or fragment, human, UniProt P35637 495-526, looked up)
chain: B1 chain with P23H, E29S
notes: as for B7
B11: FUS-NLS(G507D) (domain or fragment, human, UniProt P35637 495-526, looked up)
chain: B1 chain with G13D, P23H
notes: as for B1
B12: FUS-NLS(G515C) (domain or fragment, human, UniProt P35637 495-526, looked up)
chain: B1 chain with G21C, P23H
notes: as for B1
B13: FUS-NLS(R518K) (domain or fragment, human, UniProt P35637 495-526, looked up)
chain: B1 chain with P23H, R24K
notes: as for B1
B14: FUS-NLS(R521G) (domain or fragment, human, UniProt P35637 495-526, looked up)
chain: B1 chain with P23H, R27G
notes: as for B1
B15: FUS-NLS(R524S) (domain or fragment, human, UniProt P35637 495-526, looked up)
chain: B1 chain with P23H, R30S
notes: as for B1
B16: FUS-NLS(S513P) (domain or fragment, human, UniProt P35637 495-526, looked up)
chain: B1 chain with S19P, P23H
notes: as for B1

These binders were tested against T1, human transportin 1 (Trn1, residues …) (assay: SPR; BIAcore 3000, 25°C; Trn1 immobilised on a CM5 chip by amine coupling (about 8600 RU); same running buffer; kd too fast to be fit, KD from steady state equilibrium binding against the concentration of the injected protein). Conditions: both partners purified.

B1 and B2 are within 1.5-fold of each other in Kd: 140 nM for the first, 150 nM for the second.

Compared with B3, B4 is 18-fold lower in Kd: 1200 nM for the first, 67 nM for the second.

First: B5
Second: B6
The Kd of the first is 2.3-fold lower: 150 nM for the first, 350 nM for the second.

Work on B7 yielded a Kd of 890 nM.

The binders below were run against T1, human transportin 1 (Trn1, residues …) (assay: SPR; BIAcore 3000, 25°C; Trn1 immobilised on a CM5 chip by amine coupling (about 8600 RU); FUS-NLS injected at increasing concentrations, 50 µl/min; 20 mM HEPES pH 7.3, 110 mM potassium acetate, 2 mM magnesium acetate, 2 mM EGTA, 2 mM DTT, 10% glycerol, 0.005% Tween 20; 1:1 Langmuir fit). Conditions: both partners purified.

B8: binds.

Biological target: T1, human transportin 1 (Trn1, residues …)
Experiment: as above
Conditions: both partners purified
Remark: another data set of the same source

B9 and B10 are within 1.5-fold of each other in Kd: 1.7 nM for the first, 2 nM for the second.

First: B11
Second: B12
The Kd of the first is 2.8-fold higher: 7.8 nM for the first, 2.8 nM for the second.

First: B13
Second: B14
The Kd of the first is 1.9-fold lower: 13 nM for the first, 25 nM for the second.

First: B15
Second: B16
The Kd of the first is 4.2-fold higher: 10 nM for the first, 2.4 nM for the second.

Compared with B9, B10 is 340-fold lower in koff: 0.0037 s⁻¹ for the first, 1.1e-05 s⁻¹ for the second.

Going from B11 to B12, the koff falls from 0.044 s⁻¹ to 0.0051 s⁻¹ (8.6-fold).

Going from B13 to B14, the koff falls from 0.078 s⁻¹ to 0.0034 s⁻¹ (23-fold).

Compared with B15, B16 is 2.5-fold lower in koff: 0.058 s⁻¹ for the first, 0.023 s⁻¹ for the second.

First: B9
Second: B10
The kon of the first is 420-fold higher: 2.3e+06 M⁻¹ s⁻¹ for the first, 5500 M⁻¹ s⁻¹ for the second.

First: B11
Second: B12
The kon of the first is 3.2-fold higher: 5.7e+06 M⁻¹ s⁻¹ for the first, 1.8e+06 M⁻¹ s⁻¹ for the second.

Going from B13 to B14, the kon falls from 6e+06 M⁻¹ s⁻¹ to 140000 M⁻¹ s⁻¹ (43-fold).

Going from B15 to B16, the kon rises from 5.6e+06 M⁻¹ s⁻¹ to 9.4e+06 M⁻¹ s⁻¹ (1.7-fold).
